Data on one protein can be found in article PMC2739136.

Numbering of substitutions follows the chain as printed.

Experiment in all cases: pull-down
One series addresses T1, MBP-TraR R206Q, P33905.
T1 chain: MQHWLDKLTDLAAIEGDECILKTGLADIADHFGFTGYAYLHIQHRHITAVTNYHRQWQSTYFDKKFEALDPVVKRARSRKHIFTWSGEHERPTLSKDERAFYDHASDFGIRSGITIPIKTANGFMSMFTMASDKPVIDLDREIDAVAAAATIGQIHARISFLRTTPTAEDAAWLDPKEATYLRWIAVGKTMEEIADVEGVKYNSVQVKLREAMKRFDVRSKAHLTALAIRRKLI

For another series, the target named is T2, MBP-TraR G153A, P33905.
T2 chain: T1 chain with G153A, Q206R

Another series has as its target T3, MBP-TraR V146A, P33905.
T3 chain: T1 chain with V146A, Q206R

In another series the target is T4, MBP-TraR V146E, P33905.
T4 chain: T1 chain with V146E, Q206R

For another series, the target named is T5, MBP-TraR T225S, P33905.
T5 chain: T1 chain with Q206R, T225S

The next series deals with T6, MBP-TraR A149V, P33905.
T6 chain: T1 chain with A149V, Q206R

A further series has as its target T7, MBP-TraR I155F, P33905.
T7 chain: T1 chain with I155F, Q206R

Another series deals with T8, MBP-TraR S160F, P33905.
T8 chain: T1 chain with S160F, Q206R

B1: native TraR (wild type) (protein)
chain: T1 chain with Q206R
On to B1, for which the heterodimer formation (% of wild type) (% of wild type) stood at 71 in the series with MBP-TraR R206Q, P33905; 61 with MBP-TraR G153A, P33905; 61 with MBP-TraR V146A, P33905; 52 with MBP-TraR V146E, P33905; 43 in the series with MBP-TraR T225S, P33905; 19 with MBP-TraR A149V, P33905. Besides, the heterodimer formation (% of wild type) (% of wild type) with MBP-TraR I155F, P33905 was found to be 50; in the series with MBP-TraR S160F, P33905, 69.
